Patent US20090280138A1 (OXFORD BIOMEDICA UK, published 2009)

Assays:
[1] = target: T1, MHC class I allele A*0301 monomer (human, biotinylated, bound to streptavidin-coated plate); assay: iTopia, multiparametric iScore
T1 construct: also called A3; HLA-A3
Procedure: (§1) The 9 mers were tested for Peptide Binding, Off Rate and Affinity using iTopia Epitope Discovery System in accordance with the manufacturer's instructions. Briefly, 96 well microtitre plates coated with MHC molecules representing different MHC alleles are used to identify candidate peptides. […] Determinations are performed in duplicate using an ELISA plate reader and included allele specific positive controls.
(§2) Finally, multiparametric analysis is performed on the results from these assays and an iScore is generated. The iScore represents a measure of the overall quality of peptide-MHC binding, enabling candidate peptides to be ranked in order of binding quality and allowing rational prioritisation of peptides for functional cellular follow-up studies.

[2] = target: T2, MHC class I allele B*0702 monomer (human, biotinylated, bound to streptavidin-coated plate); assay: iTopia, multiparametric iScore
T2 construct: also called B7; HLA-B7
Procedure: as §1, §2

[3] = target: T3, MHC class I allele A*0201 monomer (human, biotinylated, bound to streptavidin-coated plate); assay: iTopia, multiparametric iScore
T3 construct: also called A2; HLA-A2
Procedure: as §1, §2

[4] = target: T4, MHC class I allele A*0101 monomer (human, biotinylated, bound to streptavidin-coated plate); assay: iTopia, multiparametric iScore
T4 construct: placeholder peptide and b2M removed, then reconstituted with test peptide and fresh b2M; also called A1; HLA-A1
Procedure: as §1, §2

[5] = target: T5, MHC class I molecule A*0201 (biotin (bound to streptavidin-coated plate)); assay: iTopia iScore
T5 construct: also called A2; HLA-A2
Summary of the method: (§3)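 9-mer peptides were tested on plates coated with MHC molecules, measuring binding, off-rate and affinity by ELISA in duplicate with allele-specific positive controls.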

[6] = target: T6, MHC class I molecule B*0702 (biotin (bound to streptavidin-coated plate)); assay: iTopia iScore
T6 construct: also called B7; HLA-B7
Summary of the method: as §3

[7] = target: T7, MHC class I molecule A*0301 (biotin (bound to streptavidin-coated plate)); assay: iTopia iScore
T7 construct: also called A3; HLA-A3
Summary of the method: as §3

[8] = target: T8, MHC class I molecule A*0101 (biotin (bound to streptavidin-coated plate)); assay: iTopia iScore
T8 construct: also called A1; HLA-A1
Summary of the method: as §3

## SLVSLTYVS [5T4 9-mer peptide 123]
[1]
  iScore: 0
[2]
  iScore: 0
[3]
  iScore: 0.206
[4]
  iScore: 0

## AELQGLPHI [5T4 9-mer peptide 140]
[1]
  iScore: 0
[2]
  iScore: 0
[3]
  iScore: 0
[4]
  iScore: 0

## NNSLVSLTY [5T4 9-mer peptide 122]
[1]
  iScore: 0
[2]
  iScore: 0
[3]
  iScore: 0
[4]
  iScore: 0

## IRVFLDNNP [5T4 9-mer peptide 144]
[1]
  iScore: 0
[2]
  iScore: 0
[3]
  iScore: 0
[4]
  iScore: 0

## KVLHNGTLA [5T4 9-mer peptide 136]
[1]
  iScore: 0
[2]
  iScore: 0
[3]
  iScore: 0.15
[4]
  iScore: 0

## AGRALQGLR [5T4 9-mer peptide 103 AGRALQGLR]
[5]
  iScore: 0
[6]
  iScore: 0
[7]
  iScore: 0
[8]
  iScore: 0

## RNLTHLESL [5T4 9-mer peptide 128]
[1]
  iScore: 0
[2]
  iScore: 0
[3]
  iScore: 0.072
[4]
  iScore: 0

## TLAELQGLP [5T4 9-mer peptide 139]
[1]
  iScore: 0
[2]
  iScore: 0
[3]
  iScore: 0.083
[4]
  iScore: 0

## LHLEDNALK [5T4 9-mer peptide 132]
[1]
  iScore: 0
[2]
  iScore: 0
[3]
  iScore: 0
[4]
  iScore: 0

## DNALKVLHN [5T4 9-mer peptide 134]
[1]
  iScore: 0
[2]
  iScore: 0
[3]
  iScore: 0
[4]
  iScore: 0

## ALKVLHNGT [5T4 9-mer peptide 135]
[1]
  iScore: 0
[2]
  iScore: 0
[3]
  iScore: 0.104
[4]
  iScore: 0

## RRLELASNH [5T4 9-mer peptide 107 RRLELASNH]
[5]
  iScore: 0
[6]
  iScore: 0
[7]
  iScore: 0
[8]
  iScore: 0

## NGTLAELQG [5T4 9-mer peptide 138]
[1]
  iScore: 0
[2]
  iScore: 0
[3]
  iScore: 0
[4]
  iScore: 0

## ESLHLEDNA [5T4 9-mer peptide 131]
[1]
  iScore: 0
[2]
  iScore: 0
[3]
  iScore: 0
[4]
  iScore: 0

## RALQGLRRL [5T4 9-mer peptide 104 RALQGLRRL]
[5]
  iScore: 0.168
[6]
  iScore: 0.078
[7]
  iScore: 0.027
[8]
  iScore: 0

## VFLDNNPWV [5T4 9-mer peptide 145]
[1]
  iScore: 0
[2]
  iScore: 0
[3]
  iScore: 0.239
[4]
  iScore: 0

## NNPWVCDCH [5T4 9-mer peptide 147]
[1]
  iScore: 0.051
[2]
  iScore: 0
[3]
  iScore: 0
[4]
  iScore: 0

## LEDNALKVL [5T4 9-mer peptide 133]
[1]
  iScore: 0
[2]
  iScore: 0
[3]
  iScore: 0.122
[4]
  iScore: 0

## SNHFLYLPR [5T4 9-mer peptide 110 SNHFLYLPR]
[5]
  iScore: 0.051
[6]
  iScore: 0
[7]
  iScore: 0.084
[8]
  iScore: 0

## LQGLRRLEL [5T4 9-mer peptide 105 LQGLRRLEL]
[5]
  iScore: 0.114
[6]
  iScore: 0.119
[7]
  iScore: 0
[8]
  iScore: 0

## VCDCHMADM [5T4 9-mer peptide 149]
[1]
  iScore: 0
[2]
  iScore: 0
[3]
  iScore: 0.061
[4]
  iScore: 0

## RDVLAQLPS [5T4 9-mer peptide 114 RDVLAQLPS]
[5]
  iScore: 0
[6]
  iScore: 0
[7]
  iScore: 0
[8]
  iScore: 0

## LTHLESLHL [5T4 9-mer peptide 129]
[1]
  iScore: 0
[2]
  iScore: 0
[3]
  iScore: 0.143
[4]
  iScore: 0

## LSNNSLVSL [5T4 9-mer peptide 121]
[1]
  iScore: 0
[2]
  iScore: 0.012
[3]
  iScore: 0.116
[4]
  iScore: 0

## HLESLHLED (also called HLESLHLED) [5T4 9-mer peptide 130]
[1]
  iScore: 0
[2]
  iScore: 0
[3]
  iScore: 0
[4]
  iScore: 0

## LDLSNNSLV [5T4 9-mer peptide 120]
[1]
  iScore: 0
[2]
  iScore: 0
[3]
  iScore: 0.156
[4]
  iScore: 0

## VSLTYVSFR [5T4 9-mer peptide 124]
[1]
  iScore: 0.025
[2]
  iScore: 0
[3]
  iScore: 0
[4]
  iScore: 0

## LPRDVLAQL [5T4 9-mer peptide 113 LPRDVLAQL]
[5]
  iScore: 0
[6]
  iScore: 0.305
[7]
  iScore: 0
[8]
  iScore: 0

## SLRHLDLSN [5T4 9-mer peptide 118 SLRHLDLSN]
[5]
  iScore: 0.03
[6]
  iScore: 0
[7]
  iScore: 0
[8]
  iScore: 0

## PHIRVFLDN [5T4 9-mer peptide 143]
[1]
  iScore: 0
[2]
  iScore: 0
[3]
  iScore: 0
[4]
  iScore: 0

## GLRRLELAS [5T4 9-mer peptide 106 GLRRLELAS]
[5]
  iScore: 0.045
[6]
  iScore: 0
[7]
  iScore: 0
[8]
  iScore: 0

## VLAQLPSLR [5T4 9-mer peptide 115 VLAQLPSLR]
[5]
  iScore: 0.113
[6]
  iScore: 0
[7]
  iScore: 0.023
[8]
  iScore: 0

## PWVCDCHMA [5T4 9-mer peptide 148]
[1]
  iScore: 0
[2]
  iScore: 0
[3]
  iScore: 0
[4]
  iScore: 0

## LDNNPWVCD [5T4 9-mer peptide 146]
[1]
  iScore: 0
[2]
  iScore: 0
[3]
  iScore: 0
[4]
  iScore: 0

## LYLPRDVLA [5T4 9-mer peptide 112 LYLPRDVLA]
[5]
  iScore: 0.218
[6]
  iScore: 0
[7]
  iScore: 0
[8]
  iScore: 0

## LQGLPHIRV [5T4 9-mer peptide 141]
[1]
  iScore: 0
[2]
  iScore: 0
[3]
  iScore: 0.2
[4]
  iScore: 0

## HFLYLPRDV [5T4 9-mer peptide 111 HFLYLPRDV]
[5]
  iScore: 0.227
[6]
  iScore: 0
[7]
  iScore: 0
[8]
  iScore: 0

## AQLPSLRHL [5T4 9-mer peptide 116 AQLPSLRHL]
[5]
  iScore: 0.162
[6]
  iScore: 0
[7]
  iScore: 0
[8]
  iScore: 0

## LASNHFLYL [5T4 9-mer peptide 109 LASNHFLYL]
[5]
  iScore: 0.337
[6]
  iScore: 0
[7]
  iScore: 0.224
[8]
  iScore: 0.12

## LELASNHFL [5T4 9-mer peptide 108 LELASNHFL]
[5]
  iScore: 0.151
[6]
  iScore: 0
[7]
  iScore: 0
[8]
  iScore: 0

## LHNGTLAEL [5T4 9-mer peptide 137]
[1]
  iScore: 0
[2]
  iScore: 0.026
[3]
  iScore: 0.187
[4]
  iScore: 0

## RHLDLSNNS [5T4 9-mer peptide 119 RHLDLSNNS]
[5]
  iScore: 0.029
[6]
  iScore: 0
[7]
  iScore: 0
[8]
  iScore: 0

## SFRNLTHLE [5T4 9-mer peptide 127]
[1]
  iScore: 0
[2]
  iScore: 0
[3]
  iScore: 0
[4]
  iScore: 0
